Data taken from patent publication US20260070960A1 (US Dept. of Health and Human Services, published 2026).

B1: single-domain antibody F5 (camel VHH nanobody) (VHH)
VHH: EVQLVESGGGSVQAGGSLRLSCAASGFTFSNNRMGWVRQAPGKGLEWVSDINSSGGVTEYADSVKGRFTISRDNAKNTLYLQLNSLKIEDTAIYYCVYYSYLMRLRPGQGTQVTVSS
notes: also called VHH F5; nanobody F5
B2: single-domain antibody G9 (camel VHH nanobody) (VHH)
VHH: EVQLVESGGGLVQPGGSLRLSCVASGFTFSNNRMGWVRQAPGKGLEWVSDINSSGGVTEYADSVKGRFTISRDNAKNTLYLQLNSLKIEDTAIYYCVYYSYLMRLRPGQGTQVTVSS
notes: also called nanobody G9

Key:
[1] = target: pMHC-E6, HLA-A*02:01-[…] monomer (refolded, soluble) (human; human papillomavirus (HPV))
[2] = target: T1, E7 peptide (…) in complex with HLA-A*02:01 on T2 cells (human; human papillomavirus (HPV)); experiment: FACS on 293E7 cells, APC-anti-Flag; nanobody concentration not given
T1 construct: whole, on cells

| Binder | Kd [1] | binding result [2] |
| --- | --- | --- |
| B1 | 1500 nM | no binding |
| B2 |  | no binding |
